Positions count from the first letter of the chain named. Names and notes keep the numbering of the source.

B1: Fab VH1-46_IGHD6-6*01_IGHJ1*01 S102A/S103P/S104F/H111F & L6_IGKJ1*01 (Fab, V domains shown)
VH: QVQLVQSGAEVKKPGASVKVSCKASGYTFTSYYMHWVRQAPGQGLEWMGIINPSGGSTSYAQKFQGRVTMTRDTSTSTVYMELSSLRSEDTAVYYCAREEYAPFSAEYFQFWGQGTLVTVSS
VL: not shown
notes: Tested as a Fab made in E. coli; also called H:APFF & L:wt; APFF
B2: Fab VH1-46_IGHD6-6*01_IGHJ1*01 S102A/S103P/S104F/H111F & L6_IGKJ1*01 S31H (Fab, V domains shown)
VH: B1 VH
VL: EIVLTQSPATLSLSPGERATLSCRASQSVSHYLAWYQQKPGQAPRLLIYDASNRATGIPARFSGSGSGTDFTLTISSLEPEDFAVYYCQQRSNWPPWTFGQGTKVEIKR
notes: Tested as a Fab; also called APFF & S31H
B3: Fab VH1-46_IGHD6-6*01_IGHJ1*01 S102A/S103P/S104F/H111F & L6_IGKJ1*01 S30D (Fab, V domains shown)
VH: B1 VH
VL: B2 VL with S30D, H31S
notes: Tested as a Fab; also called APFF & S30D
B4: Fab VH1-46_IGHD6-6*01_IGHJ1*01 S102A/S103P/S104F/H111F & L6_IGKJ1*01 S28H (Fab, V domains shown)
VH: B1 VH
VL: B2 VL with S28H, H31S
notes: Tested as a Fab; also called APFF & S28H
B5: Fab VH1-46_IGHD6-6*01_IGHJ1*01 S102A/S103P/S104F/H111F & L6_IGKJ1*01 S28N (Fab, V domains shown)
VH: B1 VH
VL: B2 VL with S28N, H31S
notes: Tested as a Fab; also called APFF & S28N
B6: Fab VH1-46_IGHD6-6*01_IGHJ1*01 S102A/S103P/S104F/H111F/G56A & L6_IGKJ1*01 S28N/S30D/S31H (Fab, V domains shown)
VH: B1 VH with G56A
VL: B2 VL with S28N, S30D
notes: Tested as a Fab; also called H:APFF G56A & L:NDH
B7: Fab VH1-46_IGHD6-6*01_IGHJ1*01 S102A/S103P/S104F/H111F & L6_IGKJ1*01 S28N/S30D/S31H (Fab, V domains shown)
VH: B1 VH
VL: B2 VL with S28N, S30D
notes: Tested as a Fab; also called H:APFF & L:NDH; APFF-NDH
B8: Fab VH1-46_IGHD6-6*01_IGHJ1*01 S102A/S103P/S104F/H111F/S54A & L6_IGKJ1*01 S28N/S30D/S31H (Fab, V domains shown)
VH: B1 VH with S54A
VL: B2 VL with S28N, S30D
notes: Tested as a Fab; also called H:APFF S54A & L:NDH
B9: Fab VH1-46_IGHD6-6*01_IGHJ1*01 S102A/S103P/S104F/H111F/G56A & L6_IGKJ1*01 (Fab, V domains shown)
VH: B1 VH with G56A
VL: not shown
notes: Tested as a Fab; also called APFF G56A & Parent
B10: Fab VH5-51_IGHD5-18*01>3_IGHJ4*01 G100K/G104T F29A & V3-4_IGLJ1*01 (Fab, V domains shown)
VH: EVQLVQSGAEVKKPGESLKISCKGSGYSATSYWIGWVRQMPGKGLEWMGIIYPGDSDTRYSPSFQGQVTISADKSISTAYLQWSSLKASDTAMYYCARRKYSYTYDYFDYWGQGTLVTVSS
VL: QTVVTQEPSFSVSPGGTVTLTCGLSSGSVSTSYYPSWYQQTPGQAPRTLIYSTNTRSSGVPDRFSGSILGNKAALTITGAQADDESDYYCVLYMGSGISYVFGTGTKVTVL
notes: Fab expressed in E. coli with CH1 (plasmid A, His6 and Flag tags) and lambda CL (plasmid E); also called KT F29A
B11: Fab VH5-51_IGHD5-18*01>3_IGHJ4*01 G100K/G104T T30A & V3-4_IGLJ1*01 (Fab, V domains shown)
VH: B10 VH with A29F, T30A
VL: B10 VL
notes: Fab expressed in E. coli with CH1 (plasmid A, His6 and Flag tags) and lambda CL (plasmid E); also called KT T30A
B12: Fab VH5-51_IGHD5-18*01>3_IGHJ4*01 G100K/G104T G24A & V3-4_IGLJ1*01 (Fab, V domains shown)
VH: B10 VH with G24A, A29F
VL: B10 VL
notes: Fab expressed in E. coli with CH1 (plasmid A, His6 and Flag tags) and lambda CL (plasmid E); also called KT G24A
B13: Fab VH5-51_IGHD5-18*01>3_IGHJ4*01 G100K/G104T S28A & V3-4_IGLJ1*01 (Fab, V domains shown)
VH: B10 VH with S28A, A29F
VL: B10 VL
notes: Fab expressed in E. coli with CH1 (plasmid A, His6 and Flag tags) and lambda CL (plasmid E); also called KT S28A
B14: Fab VH5-51_IGHD5-18*01>3_IGHJ4*01 G100K/G104T G35A & V3-4_IGLJ1*01 (Fab, V domains shown)
VH: B10 VH with A29F, G35A
VL: B10 VL
notes: Fab expressed in E. coli with CH1 (plasmid A, His6 and Flag tags) and lambda CL (plasmid E); also called KT G35A
B15: Fab VH1-46_IGHD6-6*01_IGHJ1*01 S102A/S103P/S104F/H111F (APFF) & L6_IGKJ1*01 S76Y (Fab, V domains shown)
VH: B1 VH
VL: B2 VL with H31S, S76Y
notes: Fab made in E. coli: VH in plasmid A (CH1, His6 and Flag tags), VL in plasmid C (kappa CL); also called H:APFF & L6_IGKJ1*01 S76Y
B16: Fab VH1-46_IGHD6-6*01_IGHJ1*01 S102A/S103P/S104F/H111F (APFF) & L6_IGKJ1*01 S76T (Fab, V domains shown)
VH: B1 VH
VL: B2 VL with H31S, S76T
notes: Fab made in E. coli: VH in plasmid A (CH1, His6 and Flag tags), VL in plasmid C (kappa CL); also called H:APFF & L6_IGKJ1*01 S76T
B17: Fab VH1-46_IGHD6-6*01_IGHJ1*01 S102A/S103P/S104F/H111F (APFF) & L6_IGKJ1*01 S76L (Fab, V domains shown)
VH: B1 VH
VL: B2 VL with H31S, S76L
notes: Fab made in E. coli: VH in plasmid A (CH1, His6 and Flag tags), VL in plasmid C (kappa CL); also called H:APFF & L6_IGKJ1*01 S76L
B18: Fab VH1-46_IGHD6-6*01_IGHJ1*01 S102A/S103P/S104F/H111F (APFF) & L6_IGKJ1*01 S76G (Fab, V domains shown)
VH: B1 VH
VL: B2 VL with H31S, S76G
notes: Fab made in E. coli: VH in plasmid A (CH1, His6 and Flag tags), VL in plasmid C (kappa CL); also called H:APFF & L6_IGKJ1*01 S76G
B19: Fab VH1-46_IGHD6-6*01_IGHJ1*01 S102A/S103P/S104F/H111F (APFF) & L6_IGKJ1*01 (Fab, V domains shown)
VH: B1 VH
VL: not shown
notes: Fab made in E. coli: VH in plasmid A (CH1, His6 and Flag tags), VL in plasmid C (kappa CL); also called H:APFF & L:wt; APFF mutant

The target of the first experiment is T1, Recombinant Human DLL4 (delta-like protein 4) (human, UniProt Q9NR61 27-524).
T1 construct: Bought recombinant human DLL4 (R&D Systems Cat#1506-D4/CF); also called rHuman DLL4; Delta-like 4
Nature of the experiment: ELISA, DLL4 coated on plate, Fab at 50 nM. On the technique in general: In an ELISA, binding on a coated surface is turned into a signal by an enzyme label.
For the molecule B1, the ELISA signal was 0.06.
On the same count and under the same terms, the result for B2 reads 0.05; that for B3, 0.06.
The same measure, in the same setting: to B4 belongs 0.05.
Still for that read-out and setting: the result for B5 reads 0.07.

In another experiment the target is T1, Recombinant Human DLL4 (delta-like …). Kind of experiment: ELISA, DLL4 coated on plate, Fab at 0 nM (no-Fab background).
With B1, the ELISA signal was 0.006.
As to B6, the ELISA signal was 0.002.
In the case of B7, the ELISA signal came to 0.002.
As to B8, the ELISA signal was determined as 0.
In the case of B9, the ELISA signal worked out at 0.002.

The next experiment deals with T2, Recombinant Human DLL4 (human, UniProt Q9NR61 27-524).
T2 construct: Bought recombinant human DLL4 (R&D Systems Cat#1506-D4/CF); That entry includes the signal peptide (amino acids 1-25), the transmembrane region and the cytoplasmic domain; also called delta-like protein 4; Delta-like ligand 4
Nature of the experiment: ECL (MSD) multispot binding assay, DLL4 spotted on plate, purified Fab in solution; signal over blank.
On to B10, for which the “ECL Signal/Blank” value worked out at 67.9.
Still for that read-out and setting: to B11 belongs 69.4.
For B12, the “ECL Signal/Blank” value is 122.
B13: the “ECL Signal/Blank” value worked out at 112.
Same read-out and setting: the result for B14 reads 180.

In the next experiment the target is T1, Recombinant Human DLL4 (delta-like …). Nature of the experiment: ELISA, DLL4 coated on plate, Fab at 100 nM.
As to B1, the ELISA signal worked out at 0.07.
The same measure, in the same setting: the result for B2 reads 0.09; that for B3, 0.09.
Still for that read-out and setting: the result for B4 reads 0.09; that for B5, 0.13.

Another experiment deals with T3, Recombinant Human DLL4 (delta-like protein 4) (human, UniProt Q9NR61 27-524).
T3 construct: also called rHuman DLL4
Kind of experiment: ECL (Meso Scale Discovery) binding assay on immobilised DLL4, Fab 10 nM.
B15: the “Signal [10 nM Fab]” value came out at 14800.
Still for that read-out and setting: the result for B16 reads 15700.
Take B17: the “Signal [10 nM Fab]” value worked out at 13700.
The same measure, in the same setting: to B18 belongs 13400; to B19, 13500.

Another experiment has as its target T1, Recombinant Human DLL4 (delta-like …). Nature of the experiment: ELISA, DLL4 coated on plate, Fab at 75 nM.
With B1, the ELISA signal was determined as 0.072.
On the same count and under the same terms, to B6 belongs 0.543.
Take B7: the ELISA signal is 0.268.
Consider B8, for which the ELISA signal is 0.212.
Same read-out and setting: the result for B9 reads 0.399.

Another experiment shares this target. Nature of the experiment: ELISA, DLL4 coated on plate, Fab at 50 nM. This is another data set of the same source.
As to B1, the ELISA signal turned out to be 0.06.
As to B6, the ELISA signal is 0.366.
With B7, the ELISA signal was 0.202.
Regarding B8, the ELISA signal is 0.154.
Still for that read-out and setting: to B9 belongs 0.301.

The next experiment addresses T2, Recombinant Human DLL4. Nature of the experiment: ELISA, DLL4 coated on plate, Fab in solution, absorbance at 450 nm; signal minus noise.
As to B10, the “ELISA (Signal-Noise)” value was 0.02.
Take B11: the “ELISA (Signal-Noise)” value was 0.
The same measure, in the same setting: to B12 belongs 0.02; to B13, 0.01.
As to B14, the “ELISA (Signal-Noise)” value amounted to 0.02.

For the next experiment, the target named is T1, Recombinant Human DLL4 (delta-like …). Nature of the experiment: ELISA, DLL4 coated on plate, Fab at 0 nM (no-Fab background, second 0 row).
B1: the ELISA signal turned out to be 0.
The same measure, in the same setting: the result for B2 reads 0.
With B3, the ELISA signal amounted to 0.01.
In the case of B4, the ELISA signal is 0.
As for B5, the ELISA signal stood at 0.

Another experiment has the same target. Kind of experiment: ELISA, DLL4 coated on plate, Fab at 200 nM.
Turning to B1, the ELISA signal worked out at 0.1.
In the case of B2, the ELISA signal stood at 0.11.
On the same count and under the same terms, to B3 belongs 0.11.
On the same count and under the same terms, to B4 belongs 0.14.
Regarding B5, the ELISA signal was found to be 0.17.

A further experiment shares this target. Kind of experiment: ELISA, DLL4 coated on plate, Fab at 25 nM (first 25 nM row).
Consider B1, for which the ELISA signal stood at 0.02.
On the same count and under the same terms, to B2 belongs 0.03.
Same read-out and setting: to B3 belongs 0.03.
On the same count and under the same terms, the result for B4 reads 0.03.
For the molecule B5, the ELISA signal is 0.04.

Another experiment has the same target. Nature of the experiment: ELISA, DLL4 coated on plate, Fab at 100 nM. This is another data set of the same source.
Regarding B1, the ELISA signal was determined as 0.072.
Still for that read-out and setting: to B6 belongs 0.453; to B7, 0.259; to B8, 0.213.
Same read-out and setting: to B9 belongs 0.338.

The target is the same in a further experiment. Nature of the experiment: ELISA, DLL4 coated on plate, Fab at 400 nM.
For B1, the ELISA signal came to 0.13.
Still for that read-out and setting: to B2 belongs 0.2.
As for B3, the ELISA signal was determined as 0.13.
Same read-out and setting: the result for B4 reads 0.13; that for B5, 0.19.

A further experiment has the same target. Nature of the experiment: ELISA, DLL4 coated on plate, Fab at 25 nM (second 25 nM row).
As for B1, the ELISA signal came to 0.03.
The same measure, in the same setting: to B2 belongs 0.03; to B3, 0.03; to B4, 0.03.
For B5, the ELISA signal was determined as 0.05.

For another experiment the target is unchanged. Nature of the experiment: ELISA, DLL4 coated on plate, Fab at 0 nM (no-Fab background, first 0 row).
As to B1, the ELISA signal was determined as 0.
Take B2: the ELISA signal is 0.
Still for that read-out and setting: the result for B3 reads 0; that for B4, 0.01; that for B5, 0.
